In patent publication US20240415888A1 (Memorial Sloan Kettering, published 2024):

B1: M22/CD3 T-BsAb (anti-TSHR x anti-CD3 bispecific antibody, IgG-[L]-scFv 2+2 format) (bispecific antibody)
light: LTVLTQPPSVSGAPRQRVTISCSGNSSNIGNNAVNWYQQLPGKAPKLLIYYDDQLPSGVSDRFSGSRSGTSASLAIRGLQSEDEADYYCTSWDDSLDSQLFGGGTRLTVLGQPKAAPSVTLFPPSSEELQANKATLVCLISDFYPGAVTVAWKADSSPVKAGVETTTPSKQSNNKYAASSYLSLTPEQWKSHRSYSCQVTHEGSTVEKTVAPTECTSGGGGSGGGGSGGGGSQVQLVQSGGGVVQPGRSLRLSCKASGYTFTRYTMHWVRQAPGKCLEWIGYINPSRGYTNYNQKFKDRFTISRDNSKNTAFLQMDSLRPEDTGVYFCARYYDDHYSLDYWGQGTPVTVSSGGGGSGGGGSGGGGSGGGGSGGGGSGGGGSDIQMTQSPSSLSASVGDRVTITCSASSSVSYMNWYQQTPGKAPKRWIYDTSKLASGVPSRFSGSGSGTDYTFTISSLQPEDIATYYCQQWSSNPFTFGCGTKLQITR
heavy: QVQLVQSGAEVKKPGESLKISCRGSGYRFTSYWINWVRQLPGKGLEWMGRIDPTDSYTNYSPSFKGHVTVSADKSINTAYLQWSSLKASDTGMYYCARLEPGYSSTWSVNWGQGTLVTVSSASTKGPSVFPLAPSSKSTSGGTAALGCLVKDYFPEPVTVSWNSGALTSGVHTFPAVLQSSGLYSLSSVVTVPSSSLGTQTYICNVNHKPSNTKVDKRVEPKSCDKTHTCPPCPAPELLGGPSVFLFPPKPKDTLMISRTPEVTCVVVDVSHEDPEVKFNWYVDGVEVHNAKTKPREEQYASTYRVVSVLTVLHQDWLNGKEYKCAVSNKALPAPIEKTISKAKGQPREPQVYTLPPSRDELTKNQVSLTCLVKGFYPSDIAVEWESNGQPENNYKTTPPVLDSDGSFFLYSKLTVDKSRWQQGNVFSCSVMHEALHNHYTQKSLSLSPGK
notes: Expressed in Expi-CHO cells and purified on protein A; also called M22/CD3 BsAb; M22-TSHR/CD3
B2: K1-70/CD3 T-BsAb (anti-TSHR x anti-CD3 bispecific antibody, IgG-[L]-scFv 2+2 format) (bispecific antibody)
light: QSVLTQPPSVSAAPGQKVTISCSGSSSDIGSNYVSWYQQFPGTAPKLLIYDNNKRPSAIPDRFSGSKSGTSATLGITGLQTGDEADYYCGTWDSRLGIAVFGGGTQLTVLGQPKAAPSVTLFPPSSEELQANKATLVCLISDFYPGAVTVAWKADSSPVKAGVETTTPSKQSNNKYAASSYLSLTPEQWKSHRSYSCQVTHEGSTVEKTVAPTECTSGGGGSGGGGSGGGGSQVQLVQSGGGVVQPGRSLRLSCKASGYTFTRYTMHWVRQAPGKCLEWIGYINPSRGYTNYNQKFKDRFTISRDNSKNTAFLQMDSLRPEDTGVYFCARYYDDHYSLDYWGQGTPVTVSSGGGGSGGGGSGGGGSGGGGSGGGGSGGGGSDIQMTQSPSSLSASVGDRVTITCSASSSVSYMNWYQQTPGKAPKRWIYDTSKLASGVPSRFSGSGSGTDYTFTISSLQPEDIATYYCQQWSSNPFTFGCGTKLQITR
heavy: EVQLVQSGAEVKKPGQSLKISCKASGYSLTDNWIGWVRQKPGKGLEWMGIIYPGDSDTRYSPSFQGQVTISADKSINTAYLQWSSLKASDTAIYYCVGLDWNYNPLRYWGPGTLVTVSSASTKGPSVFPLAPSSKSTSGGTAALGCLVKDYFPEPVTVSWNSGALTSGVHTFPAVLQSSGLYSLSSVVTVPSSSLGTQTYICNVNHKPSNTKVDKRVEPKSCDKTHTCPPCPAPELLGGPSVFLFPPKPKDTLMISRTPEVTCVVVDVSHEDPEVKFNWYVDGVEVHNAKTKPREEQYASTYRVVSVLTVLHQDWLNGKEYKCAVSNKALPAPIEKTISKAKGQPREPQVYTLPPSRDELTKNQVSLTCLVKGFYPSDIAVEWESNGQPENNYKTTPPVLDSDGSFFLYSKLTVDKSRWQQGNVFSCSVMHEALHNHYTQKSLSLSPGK
notes: also called K1-70/CD3 BsAb; K1-70-TSHR/CD3

Biological target: T1, human Thyroid Stimulating Hormone Receptor (TSHR), expressed on transfected or transduced cells (human, UniProt P16473 21-764)
T1 construct: also called Hu-TSHR; human TSHR
Assay: flow cytometry on HEK-293T cells transfected with TSHR expression vectors
Description: Flow Cytometry. Flow cytometry was performed to assess specific binding of TSHR and HER2 bispecific antibodies or to quantify their membrane expression. […] For flow analysis cells were harvested using 0.02% EDTA in phosphate-buffered saline (PBS). […] After washing, cells were captured using a BD LSRFortessa (BD Biosciences). Cells stained with DAPI (1 μg/mL) were excluded. Cytometric analysis was performed using FlowJo (V10.6; FlowJo) to obtain median fluorescence intensity (MFI) or to quantify molecules per cell using QuantiBRITE PE reference beads (BD Biosciences).

| Binder | binding result |
| --- | --- |
| B1 | binds |
| B2 | binds |
